From paper PMC6803030 (Inorganic chemistry, 2019)
Changes are numbered by the printed parent chain. In names and notes the source's numbering stands. Where two headings read alike, the source gives them in different places. Values belong to the binder of their own block, whether it stands above or below them.

Columns and labels:
Experiment in all cases: SEC
[1] = biological target: T1, mS100A9(H107A) (murine, UniProt P31725 2-113, H107A)
T1 sequence (looked up): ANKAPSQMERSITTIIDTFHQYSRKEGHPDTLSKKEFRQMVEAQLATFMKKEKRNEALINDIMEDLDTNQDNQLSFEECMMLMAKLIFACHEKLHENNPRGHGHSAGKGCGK

[2] = biological target: T2, mS100A9(H105A) (murine, UniProt P31725 2-113, H105A)
T2 sequence (looked up): T1 sequence (looked up) with H104A, A106H

[3] = biological target: T3, mS100A9(H103A)(H107A) (murine, UniProt P31725 2-113, H103A | H107A)
T3 sequence (looked up): T1 sequence (looked up) with H102A

[4] = biological target: T4, mS100A9(H103A) (murine, UniProt P31725 2-113, H103A)
T4 sequence (looked up): T1 sequence (looked up) with H102A, A106H

[5] = biological target: T5, mS100A9 (murine S100A9 subunit of calprotectin) (murine, UniProt P31725 1-113)
T5 sequence (looked up): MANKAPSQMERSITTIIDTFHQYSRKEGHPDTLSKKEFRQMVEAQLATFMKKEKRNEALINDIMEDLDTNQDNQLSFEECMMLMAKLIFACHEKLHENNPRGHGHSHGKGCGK

[6] = biological target: T6, mS100A9(H103A)(H105A) (murine, UniProt P31725 2-113, H103A | H105A)
T6 sequence (looked up): T1 sequence (looked up) with H102A, H104A, A106H

[7] = biological target: T7, mS100A9(H105A)(H107A) (murine, UniProt P31725 2-113, H105A | H107A)
T7 sequence (looked up): T1 sequence (looked up) with H104A

[8] = biological target: the molecule itself
[9] = biological target: the molecule itself; remark: listed apart in the source

binding result [1]: binds | binding result [2]: binds | binding result [3]: binds | binding result [4]: binds | binding result [5]: binds | binding result [6]: binds | binding result [7]: binds
B1: mS100A8 (murine S100A8 subunit of calprotectin) (natural protein, UniProt P27005 1-89, looked up)
chain: MPSELEKALSNLIDVYHNYSNIQGNHHALYKNDFKKMVTTECPQFVQNINIENLFRELDINSDNAINFEEFLAMVIKVGVASHKDSHKE

B2: murine calprotectin (mS100A8/mS100A9 heterodimer) (complex)
chain 1: B1 chain
chain 2: T5 sequence (looked up)
binding result [8]: binds

B3: mCP(H103A)(H105A), mS100A8/mS100A9(H103A)(H105A) (complex, murine)
chain 1: B1 chain
chain 2: T1 sequence (looked up) with H102A, H104A, A106H
binding result [9]: binds

B4: mCP ∆His3Asp variant, mS100A8(H83A)(H87A)/mS100A9(H21A)(D31A) (complex, murine)
chain 1: B1 chain with H83A, H87A
chain 2: T1 sequence (looked up) with H20A, D30A, A106H
binding result [9]: binds

B5: mCP(H103A), mS100A8/mS100A9(H103A) (complex, murine)
chain 1: B1 chain
chain 2: T1 sequence (looked up) with H102A, A106H
binding result [9]: binds

B6: mCP(H105A), mS100A8/mS100A9(H105A) (complex, murine)
chain 1: B1 chain
chain 2: T1 sequence (looked up) with H104A, A106H
binding result [9]: binds

B7: mCP(H103A)(H107A), mS100A8/mS100A9(H103A)(H107A) (complex, murine)
chain 1: B1 chain
chain 2: T1 sequence (looked up) with H102A
binding result [9]: binds

B8: mCP(H107A), mS100A8/mS100A9(H107A) (complex, murine)
chain 1: B1 chain
chain 2: T1 sequence (looked up)
binding result [9]: binds

B9: mCP(H105A)(H107A), mS100A8/mS100A9(H105A)(H107A) (complex, murine)
chain 1: B1 chain
chain 2: T1 sequence (looked up) with H104A
binding result [9]: binds
